Data published in paper PMC10965056.

System: T1, PsdR-His (Pseudomonas aeruginosa PAO1?), ORF:604e189e
T1 sequence: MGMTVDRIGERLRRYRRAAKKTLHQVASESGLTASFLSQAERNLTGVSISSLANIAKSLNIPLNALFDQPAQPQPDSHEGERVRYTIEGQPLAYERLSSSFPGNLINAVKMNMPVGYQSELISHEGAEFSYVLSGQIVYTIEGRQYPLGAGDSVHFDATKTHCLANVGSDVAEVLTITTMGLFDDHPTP
Assay: EMSA
Details: 10 mM Tris-HCl pH 7.5, 50 mM KCl, 1 mM DTT, 1% glycerin, 10 mM MgCl2, 1 ug/ul poly(dI-dC), 25 C, 30 min; 6.5% polyacrylamide gel

## CGGGTATCGTACTAGGTGCATCAAACGCTGCGGTCTATTGTTAAGTGGGACTGAAATGTGCCTTTCCGGCACAACGCCAACTCTATAGA (double strand) [PlasR-WT]
  binding: binds
